The target in one assay is HL-Munc18c (mouse) (UniProt Q60770). Description: BLI; HL-Munc18c immobilised on Ni-NTA biosensors; de-tagged Sx4 constructs 25–400 nM in solution; BLItz; 1:1 fit. In general terms: BLI is a label-free optical method that tracks binding on a fibre tip over time.
Assay [1] deals with Alexa488-labeled VAMP2 E78C (GST-cleaved) (rat) (UniProt P63045). The experiment in a line: fluorescence polarisation; SNARE complex formation by fluorescence anisotropy, all in solution: 700 nM SNAP23, 100 nM Alexa488-labeled VAMP2, 700 nM Sx4 variant, no Munc18c; 25°C; 25 mM HEPES pH 8.0, 200 mM NaCl, 1 mM TCEP, 2% glycerol. Background: Polarisation of emitted light reports the rotation of a fluorescent probe.
Sequence of Alexa488-labeled VAMP2 E78C (GST-cleaved) (rat) (P63045 1-96 E78C): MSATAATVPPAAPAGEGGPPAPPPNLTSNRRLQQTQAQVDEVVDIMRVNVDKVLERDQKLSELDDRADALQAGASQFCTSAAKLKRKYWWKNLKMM

Assay [2] has the same target. Description: fluorescence polarisation; SNARE complex formation by fluorescence anisotropy, all in solution: 700 nM SNAP23, 100 nM Alexa488-labeled VAMP2, 700 nM Sx4 variant, in the presence of 500 nM HMunc18c; 25°C; 25 mM HEPES pH 8.0, 200 mM NaCl, 1 mM TCEP, 2% glycerol.

Sequence of HL-Munc18c (mouse) (Q60770 whole entry): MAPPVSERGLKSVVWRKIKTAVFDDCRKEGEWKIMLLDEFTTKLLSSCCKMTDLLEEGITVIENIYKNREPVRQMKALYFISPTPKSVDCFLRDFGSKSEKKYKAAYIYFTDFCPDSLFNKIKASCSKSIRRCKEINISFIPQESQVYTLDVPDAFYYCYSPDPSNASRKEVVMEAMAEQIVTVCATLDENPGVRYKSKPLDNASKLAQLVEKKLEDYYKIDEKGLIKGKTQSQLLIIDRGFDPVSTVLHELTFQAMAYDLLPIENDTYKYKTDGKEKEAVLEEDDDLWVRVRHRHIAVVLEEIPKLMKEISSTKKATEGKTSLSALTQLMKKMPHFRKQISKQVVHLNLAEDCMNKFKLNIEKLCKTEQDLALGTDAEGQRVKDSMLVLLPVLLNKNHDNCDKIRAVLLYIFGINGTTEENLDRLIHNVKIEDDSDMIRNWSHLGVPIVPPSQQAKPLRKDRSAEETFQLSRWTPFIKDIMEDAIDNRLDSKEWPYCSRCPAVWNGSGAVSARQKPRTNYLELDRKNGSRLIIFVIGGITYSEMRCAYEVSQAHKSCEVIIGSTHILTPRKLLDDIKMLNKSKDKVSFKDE

By Kd is commonly meant the concentration at which binding is half-saturated. Higher therefore signals a looser complex. Broadly, the koff is a measure of how fast the partners let go of each other. Higher therefore signals a short-lived complex. By kon is commonly meant the rate constant with which the complex forms. Low values mean slow association, high ones fast association. In the assay with HL-Munc18c (mouse), “Sx4_(1-275) (de-tagged) (from UniProt Q08850 1-275) (domain or fragment)” registered a Kd of 0.072 µM, a koff of 0.022 s⁻¹ and a kon of 300000 M⁻¹ s⁻¹.
In the case of “Sx4_(30-275)-His (from UniProt Q08850 30-275) (domain or fragment)”, the kobs of SNARE complex formation with m13 was found to be 0.00049 s⁻¹ in assay [1] and 0.00048 s⁻¹ in assay [2].
Regarding “Sx4_(30-275)-T4L-His (from UniProt Q08850 30-275; P00720 1-164)”, the kobs of SNARE complex formation with m13 stood at 0.00048 s⁻¹ in assay [1] and 0.0005 s⁻¹ in assay [2].
In the assay with HL-Munc18c (mouse), “Sx4_(1-275)-T4L (de-tagged) (from UniProt Q08850 1-275; P00720 1-164)” showed a Kd of 0.031 µM, a koff of 0.009 s⁻¹ and a kon of 290000 M⁻¹ s⁻¹.

The values above are taken from article PMC5571939.
